# Measurements as given in the RNAGym collection of RNA variant scans (doi:10.1073/pnas.2313332121).
# Variants at the floor of the assay were thinned out.
# B1: TPR 5TU (parent)
# chain: GGAUCUUCUCGAUCUAACAAAAAAGACAAAUCUGCCACAAAGCUUGAGAGCAUCUUCGGAUGCAGAGGCGGCAGCCUUCGGUGGCGCGAUAGCGCCAACGUUCUCAACUAUGACACGCAAAACGCGUGCUCCGUUGAAUGGAGUUUAUCAUG
# Variants of: B1
# Experiment: polymerase ribozyme fitness, log enrichment relative to wild type (log ratio); higher = more active; in vitro selection for triplet polymerase activity
# Procedure, shortened: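 Fitness is a logarithmic measure of how a genotype enriched relative to the wild type, with replicate averages weighted by inverse variance. The logarithm uses base 2, and enrichment came from Illumina sequencing of input and output libraries. Those libraries were PCR-built, transcribed mutants of each subunit of a heterodimeric triplet polymerase ribozyme, passed through one triplicate in vitro selection round that included frozen incubation at −7 °C, gel excision of extended constructs and streptavidin-bead capture. Genotypes were kept only if they had ≥10 input reads and ≥1 read per output.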
row,Variant,polymerase ribozyme fitness (log ratio)
1,GGAUCUUCUCGAUUUAACAAAAAAGACAAAUCUGCCACAAAGCUUGAGAGCAUCUUCGGAUGCAGAGGCGGCAGCCUUCGGUGGAGCGAUAGCGCCAACGUUCUCAACUAUGACACGCAAAACGCGUGCUCCGUUGAAUGCAGUUUAUCAUG [C14U C85A G141C],-2.63
2,GGAUCUUCUCGAUCAAACACAAAAGACAAAUCUGCCACAAAGCUUGAGAGCAUCUUCGGAUGCAGAGGCGGCACCCUUCGAUGGCGCGAUAGCGCCAACGUUCUGAACUAUGACACGCAAAACGCGUGCUCCGUGGAAUGGAGUGUAACAUG [U15A A20C G74C G81A C105G U135G U145G U148A],≤ -4.2
3,GGAUCUUCUCGAUUUAACAAAAAAGACAAAUCUGCCACAAAGCUUGAGAGCAUCUUCGGAUGCAGAGGCGGCAGCCUUCGGUGUCGCGAUAGCGCCAACGUUCUCAACUAUGACACGCAAAACGCGUGCUCCGUUGAAUGGAGUUUAUCAUG [C14U G84U],-3.29
4,GGAUCUUCUCGAUUUAACAAAAAAGACAAAUCUGCCACAAAGCUUGAGAGCAUCUUCGGAUGCAGAGGCGGCAGCCUUCGUUGUCGCGAUAGCGCCAACGUUCUCAACUAUGACACGCAAAACGCGUGCUCCGUUGAAUGGAGUUUAUCAUG [C14U G81U G84U],-2.93
5,GGAUCUUCUCGAUUUAACAAAAAAGACAAAUCUGCCACAAAGCUUAAGAGCAUCGUCGGAUGCAGAGGCGGCAGCCUUCGGUGGCGCGAUAGCGCCAACGUUCUCAACUAUGACACGCAAAACGCGUGCUCCGUUGAAUGGAGUUUAUCAUG [C14U G46A U55G],-3.69
6,GGAUCUUCUCGAUUUAACAAAAAAGACAAAUCUGCCACAAAGCUUGAGAGCAUCGUCGGAUGCAGAGGCGGCAGCCUUCGGUGGCGCGAUAGCGCCAACGUUCUCAACUAUGACACGCAAAACGCGUGCUCCGUUGAAUGGAGUUUAUCAUG [C14U U55G],-1.61
7,GGAUCUUCUCGAUUUAACAAAAAAGACAAAUCUGCCACAAAGCUUGAGAGCAUCUUCGGAUGCAGAGGCGGCAGCCUUCGGUGGCGCGAUAGCGCCAAAGUUCUCAACUAUGACACGCAAAACGCGUGCUCCGUUAAAUGGAGUUUAUCAUG [C14U C99A G136A],-2.47
8,GGAUCUUCUCGAUUUAACAAAAAAGACAAAUCUGCCACAAAGCUUGAGAGCAUCUGCGGAUGCAGAGGCGGCAGCCUCCGGUGGCUCGAUAGCGCCAACGUUCUCAACUAUGACACGCAAAACGCGUGCUCCGUUGAAUGGAGUUUAUCAUG [C14U U56G U78C G86U],-4.1
9,GGAUCUUCUCGAUUUAACAAAAAAGACAAAUCUGCCACAAAGCUAGAGACCAUCUUAGGAUGCAGAGGCGGCAGCCUUCGGUGGCGCGAUUGCGCCAACGUUGUAAACUAUGACACGCAAAACGCGUGCUCCGUUGAAUGGAGUUUAUCAUG [C14U U45A G50C C57A A91U C103G C105A],≤ -4.2
10,GGAUCUUCUCGAUUUAACAAAAAAGACAAAUCUGCCACAAAGCUUGAGAGCAUCUUCGGAUGCAGAGGCGGCAGCCUUCGGUGGCGCGAUAACGCCAACGUUCUCAACUAUGACAGGCAAAACGCGUGCUCCGUUGAAUGGAGUUUAUCAUG [C14U G92A C116G],-3.86
11,GGAUCUUCUCGAUUUAACAAAAAAGACAAAUCUGCCACAAAGCUUGAGAGCAUCUUCGGAUGCAGAGGCGGCAGCCUUCGGUGGCGCGAUAGUGCCAACGUUCUCAACUAUGACACGCAAAACGCGUGCUCCGUUGAAUGGAGUUUAUCAUG [C14U C93U],-2.62
12,GGAUCUUCUCGAUUUAACAAAAAAGACAAAUCUGCCACAAAGCUGGAGAGCAUCUUCGGAUGCAGAGGCGGCAGCCUUCGGUGGCGAGAUAGCGUCAACGUUAUCAACUAUGACACGCAAAACGCGUGCUCCGUUGAAUGGAGUUUAUCAUG [C14U U45G C87A C95U C103A],-4.17
13,GGAUCUUCUCGAUUUAACAAAAAAUACAAAGCUGCCACAAAGAUUGCGAGCAUCUUCGGAUACAGAGGCGGCAGCCUUCGGUGGCGCGAUGGCCCCAACGUUCCCAACUAUGACACGCAAAACGCGUGCUCCGUUGAUUCGAGUGUAUCAUG [C14U G25U U31G C43A A47C G62A A91G G94C U104C A138U G140C U145G],≤ -4.2
14,GGAUCUUCUCGAUUUAACAAAAAAGACAAAUCUGCCACAAAGCAUGAGAGCAUCUUCGGAUGCAGAGGCGGCAGCCUUCGGUGGCGCGAUAGCGCCAACGUUCUCAACUAUGACACGCAAAACGCGUGCUCCGUUGAAUGGAGUUUAUCAUG [C14U U44A],≤ -4.2
15,GGAUCUUCUCGAUUUAACAAAAAAGACAAAUCUGCCACAAAGCUUGAGAGCAUCUUCGGAUGCAGAGGCGGCAGCCUUCGGUGGCGCGAUAGCGCUAACGUUCUCAACUAUGACACGCAAAACGCGUGCUCCGUUGAAUGGAGUUUAUCAUG [C14U C96U],-0.908
16,GGAUCUUCUCGAUUUAACAAAAAAGACAAAUCUGCCACAAAGCUUGAGAGCAUCUUCGGAUGCAGAGGCGGCAGCCUUCGGUGGCGCGAUAGCGCCAACGUUCUCAACUAUGACACGCAAAACGCGUGCUCCGUUGAAUGGAGUUGAUCAUG [C14U U146G],-1.34
17,GGAUCUUCUCGAUUUAACAAAAAAGACAAAUCUGCCACAAAGCAUGAGAGCAUCUUACGAUGCAGAGGCGGCUGCCUUCGGUCGCGCGAUUGCGCCAACGUUCUCAACUAUGACACGCAAAACGCGUGCUCCGUUGAAUGGAGUUUAUCAUG [C14U U44A C57A G58C A73U G83C A91U],≤ -4.2
18,GGAUCUUCUCGAUUUAACAAAAAAGACAAAUCUGCCACAAAGCUUGAGAGCAUCUUCUGAUGCAGAGGCGGCAGCCUUCGGUGGCGCGAUAGCGCCAACGUUCUCAACUAUGACACGCAAAACGCGUGCUCCGUUGAAUGGAGUUUAUCAUG [C14U G58U],-0.884
19,GGAUCUUCUCGAUUUAACAAAAAAGACAAAUCUGCCACAAAGCUUGAGAGCAUCUUCGGAUGCAGAGGCGGCAGCCUUCGGUGGCGCGAUACCGCCAACGUUCUCAACUAUGACACGCAAAACGCGUGCUCCGUUGAAUGGAGUUUAUCAUG [C14U G92C],-1.88
